Test results taken from patent publication US11407840B2, “Antibodies to M(H)DM2/4 and their use in diagnosing and treating cancer” (NomoCan Pharmaceuticals LLC, priority 2017, dated 2022).
Entries after “also recorded” stand apart in the source; their conditions may differ.

How the values were obtained:
[1] = system: mouse colon cancer MC-38 cells (subcutaneous tumors); assay: MC-38 syngeneic mouse model of colon cancer; assay type: in vivo, mouse (C57BL/6); settings: for reduction in tumor volume versus control: FIG. 23
Protocol: Methodology used (Syngeneic Mouse Models of lung, colon and pancreatic cancer): To investigate the anti-tumor effects of HDM2-specific antibodies on lung, colon and pancreatic tumors in vivo, three well-known syngeneic mouse models of lung, colon and pancreatic cancer were used (Sharma et al, 1999, J. Immunol. 163 (9):5020-5028; McIntyre, 2015, Bioassays 37(8):909-920; Li, et al, 2015, Sci. Rep. 5:7856). Subcutaneous tumors were prepared by implanting either mouse Lewis Lung cancer LL/2 cells (2.5×10^5 cells/mouse), mouse colon cancer MC-38 cells (5×10^5 cells/mouse) or mouse pancreatic cancer Panc-2 cells (2×10^6 cells/mouse) in the right flanks of 8-week-old female C57BL/6 mice (n=6-7). The mice were returned to their respective cages after tumor implantation. From day 7 after tumor implantation, the tumor volumes were measured 2 times/week with a digital caliper. In the case of MC-38 and Panc-2 study, treatment started when the tumors reached an average of 70-80 mm^3. In the case of LL/2 study, tumor cell inoculation and treatment were initiated simultaneously. Mice were micro-chipped and registered following tumor implantation. Tumor volume measurements and body weights were recorded and mice were randomized into groups that received: A) mAb NMC-103 at 0.4 mg/kg (3 times a week for 3 weeks), 2 mg/kg (2 times a week for 3 weeks), or 4 mg/kg (2 times a week for 3 weeks); B) NMC-204 at 0.4 mg/kg (3 times a week for 3 weeks); C) isotype control mouse IgG1 (Abeam, Cat. No. ab 18447) or IgG3 (Abeam, Cat. No. ab 18392) at 0.4 mg/kg (3 times a week for 3 weeks) or 4 mg/kg (2 times a week for 3 weeks); D) Gemcitabine (25 mg/kg) and nab-paclitaxel (5 mg/kg) 2 times a week for 3 weeks; or E) a combination of gemcitabine (25 mg/kg), nab-paclitaxel (5 mg/kg) and mAb NMC-103 (2 mg/kg; 2 times a week for 3 weeks) or (10 mg/kg; 2 times a week for 2 weeks). All tumors were injected subcutaneously and all treatments were performed by intraperitoneal injection. Any mouse displaying prolonged adverse clinical signs, or with body weight loss exceeding 15% relative to body weight at day 0, was euthanized. Tumor measurements from post-treatment with HDM2-specific antibodies versus isotype control mouse antibodies versus standard of care treatment (gemcitabine and nab-paclitaxel) were made, and results are presented in FIGS. 16-19.
To further evaluate the NMC-103 dose-dependent anti-tumor effect, in a separate study, the MC-38 syngeneic tumor in mice (n=5) was re-established and treatment carried out similarly to the study of FIG. 17 with the following modification: increase of antibody concentration from 0.4 mg/kg to 10 mg/kg.

[2] = biological target: NMC-P2 peptide (SEQ ID NO:2), amino acids 15-25 of HDM2 (Homo sapiens, UniProt Q00987); assay: Peptide-ELISA, NMC-P2 peptide; assay type: binding; settings: 5 μg/ml peptide dried on plate; OD 450 nm
Protocol: (§1) Peptide-ELISA Methodology: 5 μg/ml of NMC-P1, NMC-P2 or NMC-P3 peptide antigen was dried onto a 96-well ELISA plate overnight. Plates were then blocked with 5% BSA in 1× phosphate-buffered saline (PBS) (100 ? /well) for 2 hours at room temperature. Microplate wells were then washed 5 times with 300 ? of ice cold 1× PBS. Appropriate dilutions of monoclonal antibodies NMC-103, NMC-204 or NMC-303 in 1% bovine serum albumin (BSA) in PBS solution were then incubated with their corresponding peptides (NMC-P1, NMC-P2 or NMC-P3, respectively) at room temperature. After 2 hours, wells were washed 5 times with 300 ? ? ice-cold PBS/well and 100 ? secondary antibody (HRP-labeled Goat anti-Mouse F(ab′)2 H&L cross-adsorbed secondary antibody (HRP-GaM F(ab′)2), ThermoFisher, Cat. No. A24524) diluted 1:2500 to 1:5000 in PBS-1% BSA solution were added and the incubation continued at room temperature. After 1 hour, the wells were washed again 5 times with 200 ? of ice-cold PBS and 50 μiL of the TMB Substrate Solution (1-StepTM Ultra TMB-ELISA, ThermoFisher, Cat. No. 34028) were added to each well and color was allowed to develop for 30 minutes at room temperature. The reaction was stopped by addition of 50 μ ? ? of stop solution (ThermoFisher, Cat. No. SSO4) to each well and absorbance of each well was read immediately for optical density (OD) at 450 nm.

[3] = biological target: NMC-P1 peptide (SEQ ID NO:1), amino acids 1-15 of HDM2 (Homo sapiens, UniProt Q00987); assay: Peptide-ELISA, NMC-P1 peptide; assay type: binding; settings: 5 μg/ml peptide dried on plate; OD 450 nm
Protocol: as §1

[4] = biological target: NMC-P1 peptide (SEQ ID NO:1) (Homo sapiens, UniProt Q00987); assay: Peptide antigen binding competition ELISA; settings: mAb pre-incubated with peptide 1 hour at room temperature; FIG. 1D
Protocol: as §1, with “nm. […]” for “nm.”

[5] = system: Human pancreatic cancer MIAPaCa-2 cells; assay: Complement-mediated cytotoxicity (CDC) with normal human serum, PI staining; assay type: cell-based; settings: antibody 30 μg/ml; NHS 1:10; 2 hours; FIG. 13
Protocol: Methodology used: Cells seeded in 24-well dishes were grown overnight at 37° C. in a humidified atmosphere supplied with 5% CO2-95% air mixture. The following day the cells were thoroughly washed with ice-cold PBS and incubated with HDM2-specific mAb NMC-103 diluted in culture medium containing 1% BSA to a final antibody concentration of 30 μg/ml. After 30 min, NHS was added to the cells at a final concentration of 1:10 in the culture medium with 1%) BSA together with 1% propidium iodide (PI) solution. Cells were then incubated with NHS for 2 hours and images were taken using EVOS FL fluorescent microscope (Life Technologies).

[6] = system: mouse Lewis Lung cancer LL/2 cells (subcutaneous tumors); assay: LL/2 syngeneic mouse model of lung cancer; assay type: in vivo, mouse (C57BL/6); settings: day 21; 0.4 mg/kg i.p. 3 times a week for 3 weeks, started with tumor cell inoculation; FIG. 16
Protocol: Methodology used (Syngeneic Mouse Models of lung, colon and pancreatic cancer): To investigate the anti-tumor effects of HDM2-specific antibodies on lung, colon and pancreatic tumors in vivo, three well-known syngeneic mouse models of lung, colon and pancreatic cancer were used (Sharma et al, 1999, J. Immunol. 163 (9):5020-5028; McIntyre, 2015, Bioassays 37(8):909-920; Li, et al, 2015, Sci. Rep. 5:7856). Subcutaneous tumors were prepared by implanting either mouse Lewis Lung cancer LL/2 cells (2.5×10^5 cells/mouse), mouse colon cancer MC-38 cells (5×10^5 cells/mouse) or mouse pancreatic cancer Panc-2 cells (2×10^6 cells/mouse) in the right flanks of 8-week-old female C57BL/6 mice (n=6-7). The mice were returned to their respective cages after tumor implantation. From day 7 after tumor implantation, the tumor volumes were measured 2 times/week with a digital caliper. In the case of MC-38 and Panc-2 study, treatment started when the tumors reached an average of 70-80 mm^3. In the case of LL/2 study, tumor cell inoculation and treatment were initiated simultaneously. Mice were micro-chipped and registered following tumor implantation. […]

[7] = biological target: NMC-P3 peptide (SEQ ID NO:3), amino acids 475-491 of HDM2 (Homo sapiens, UniProt Q00987); assay: Peptide-ELISA, NMC-P3 peptide; assay type: binding; settings: 5 μg/ml peptide dried on plate; OD 450 nm
Protocol: as §1

[8] = 0.4 mg/kg i.p. 3 times a week for 3 weeks

binding to NMC-P3 peptide (peptide-ELISA) [7]	Molecule	reduction in tumor volume versus control [1, 8]	tumor cells stained positive for Ki67 (immunohistochemistry) ([1]; NMC-103 study, 0.4 mg/kg, FIG. 17B) [%]	average tumor size ([1]; day 12, 10 mg/kg, 2 times per week for 2 weeks, n=5, FIG. 31) [mm^3]	tumor volume ([1]; treated for 18 days, 0.4 mg/kg i.p. 3 times a week for 2.5 weeks, FIG. 17A) [mm^3]	binding to NMC-P2 peptide (peptide-ELISA) [2]	binding to NMC-P1 peptide (peptide-ELISA) [3]	binding of mAb to NMC-P1 peptide on the plate after pre-incubation with NMC-P1 peptide [4]	binding of mAb to NMC-P1 peptide on the plate after pre-incubation with NMC-P2 or NMC-P3 [4]	complement-mediated cytotoxicity (nuclear uptake of Propidium Iodide) [5]	tumor volume [6] [mm^3]	tumor volume ([1]; 0.4 mg/kg i.p. 3 times a week for 3 weeks, FIG. 18A) [mm^3]	tumor cells stained positively for Ki67 ([1]; NMC-204 study, 0.4 mg/kg, FIG. 18B) [%]
–	NMC-103: mouse monoclonal antibody, IgG1 isotype, binds NMC-P1 (SEQ ID NO:1); VH SEQ ID NO:36, VL SEQ ID NO:37 (antibody, V domains shown, mAb NMC-103 Heavy Chain Variable Region; mAb NMC-103 Light Chain Variable Region) VH: EVQLQESGGGLVQPGGSLRLSCTTSGFTFTHYYMSWVRQPPGKALEWLGFIRNKAKGYTAEYSASVKGRFTISRDNSQSILYLQMNTLRPEDSATYYCARDIGDNWGQGTLVTVSS VL: DIVMTQAAFSNPVTLGTSASISCRSSKNLLHSNGITYLYWYLQRPGQSPQLLISRVSNLASGVPNRFSGSESGTDFTLRISRVEAEDVGVYFCAQLLELPYTFGGGTKLEIK	significant (p<0.005) reduction in tumor volume	5	210	1268	did not bind	bound; also recorded: strong binding	abolished the binding	did not affect the binding	triggered complement-mediated cytotoxicity	–	–	–
did not bind	NMC-204: mouse monoclonal antibody, IgG3 isotype, binds NMC-P2 (SEQ ID NO:2); VH SEQ ID NO:38, VL SEQ ID NO:39 (antibody, V domains shown, mAb NMC-204 Heavy Chain Variable Region; mAb NMC-204 Light Chain Variable Region) VH: EVQLQESGSVLVRPGASVKLSCKASGDTLSGSWMHWAMQRPGQGLEWIGEIHLNRGTTNYNEKFKGKATVTVDTSSSTAYVDLSSLTSEDSAVYYCARSPGFAYWGQGTLVTVSA VL: GIVMTQAAPSVPVTPGESVSISCRSSKSLLHSNGNSYLYWFLQRPGQSPQLLIYRMSNLASGVPDRFSGSGSGTAFTLRITRVEAEDVGVYYCMQHLEYPFTFGSGTKLEIK	significant (p<0.005) reduction in tumor volume	–	–	–	bound; also recorded: strong binding	did not bind	–	–	–	1446	1670	30
